Results taken from publication PMC3660597, “Investigation of Specificity Determinants in Bacterial tRNA-Guanine Transglycosylase Reveals Queuine, the Substrate of Its Eucaryotic Counterpart, as Inhibitor” (PLoS ONE, 2013).

Test system: Tgt "wild type" (tRNA-guanine transglycosylase) (Zymomonas mobilis)
Assay: MST
Conditions: buffer, salt, pH and temperature not given in the material

tRNATyr showed a Kd of 36.2 nM.
